The chains are these.
B1: wild-type ecdysone receptor DNA binding domain (EcRDBDWT) [Drosophila melanogaster] / itself (parent)
chain: APRVQEELCLVCGDRASGYHYNALTCEGCKGFFRRSVTKSAVYCCKFGRACEMDMYMRRKCQECRLKKCLAVGMRPECVVPENQCAMKRREKKAQKEKDKMTTSPSSQHG
B2: wild-type ecdysone receptor DNA binding domain (EcRDBDWT) [Drosophila melanogaster] / ultraspiracle DNA binding domain (UspDBD) [Drosophila melanogaster] (parent)
chain 1: B1 chain
chain 2: NHPLSGSKHLCSICGDRASGKHYGVYSCEGCKGFFKRTVRKDLTYACRENRNCIIDKRQRNRCQYCRYQKCLTCGMKREAVQEERQ

One experiment covers variants of B1. The experiment is described as follows: EMSA. As to conditions: with itself; total protein 200 nM; homodimer complex (CIIE) on hsp27pal DNA probe; parent: 44; read off a plot. (In EMSA bound probe runs differently from free probe, usually more slowly.)
Regarding chain 1 V72M, the response (% hsp27pal bound) came to 23.

Turning to chain 1 V72E, the response (% hsp27pal bound) was 7.4.

For chain 1 L24R, the response (% hsp27pal bound) worked out at 45.

Take chain 1 M57W: the response (% hsp27pal bound) is 42.

As to chain 1 C69A, the response (% hsp27pal bound) amounted to 39.

With chain 1 L66F, the response (% hsp27pal bound) was determined as 47.

Staying with this experiment, now noted: with itself; total protein 50 nM; homodimer complex (CIIE) on hsp27pal DNA probe; parent: 19; read off a plot.
With chain 1 M57W L66F, the response (% hsp27pal bound) worked out at 31.

As for chain 1 L24R M57W, the response (% hsp27pal bound) is 22.

Turning to chain 1 L24R L66F, the response (% hsp27pal bound) stood at 20.

On to chain 1 L24R M57W L66F, for which the response (% hsp27pal bound) came to 36.

Variants of B2 are the subject of a further experiment. As to the kind of experiment: EMSA. As to conditions: with ultraspiracle DNA binding domain (UspDBD) [Drosophila melanogaster]; equimolar mixture of EcRDBD and UspDBD, total protein 50 nM; heterodimer complex (CIIUE) on hsp27pal DNA probe; parent: 42; read off a plot.
As for chain 1 M57W L66F, the response (% hsp27pal bound) was determined as 51.

With chain 1 L24R M57W L66F, the response (% hsp27pal bound) was determined as 57.

In the case of chain 1 L24R M57W, the response (% hsp27pal bound) stood at 45.

With chain 1 L24R L66F, the response (% hsp27pal bound) turned out to be 39.

The same experiment, now with this note: with ultraspiracle DNA binding domain (UspDBD) [Drosophila melanogaster]; equimolar mixture of EcRDBD and UspDBD, total protein 200 nM; heterodimer complex (CIIUE) on hsp27pal DNA probe; parent: 62; read off a plot.
With chain 1 C69A, the response (% hsp27pal bound) is 55.

Regarding chain 1 L24R, the response (% hsp27pal bound) worked out at 58.

As to chain 1 V72M, the response (% hsp27pal bound) was 57.

On to chain 1 V72E, for which the response (% hsp27pal bound) came to 42.

Consider chain 1 M57W, for which the response (% hsp27pal bound) was determined as 61.

chain 1 L66F: the response (% hsp27pal bound) was found to be 64.

The values above are taken from article PMC3900457.
